Measured values reported in the supplement of paper PMC10567573.

B1: ZBED1 (parent)
chain: EQVFSLGDGVSGGFFGIRDSSFL
B2: PLAGL1 (parent)
chain: TKEKKHQCDHCERCFYTRKDVRRH

Variants of: B1
Assay: protein stability index of a GFP-peptide fusion (GPS, HEK-293T) (PSI 1-6); higher = more stable
Conditions: c terminus: native
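Further: lentivirally expressed fusions sorted by FACS into six bins by GFP to DsRed ratio, PSI derived from sequencing read proportions per bin multiplied by bin number.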

Q: Which protein stability index does the source give for V3E here?
A: 4.17

Q: For V3G, which protein stability index is on record?
A: 4.03

Q: Which protein stability index does the source give for V3H here?
A: 3.99

Q: Which protein stability index does the source give for V3C here?
A: 2.92

Q: For V3D, which protein stability index is on record?
A: 4.19

Q: Which protein stability index does the source give for V3F here?
A: 2.52

Q: With V3I as the variant, how does the protein stability index read?
A: 2.9

Q: With V3A as the variant, how does the protein stability index read?
A: 4.03

Q: For Q2H, which protein stability index is on record?
A: 3.22

Q: Which protein stability index does the source give for Q2Y here?
A: 2.43

Q: With Q2P as the variant, how does the protein stability index read?
A: 3.46

Q: For Q2W, which protein stability index is on record?
A: 2.03

Q: For Q2N, which protein stability index is on record?
A: 2.98

Q: With Q2D as the variant, how does the protein stability index read?
A: 3.7

Q: For Q2K, which protein stability index is on record?
A: 2.74

Q: For Q2G, which protein stability index is on record?
A: 3.05

Q: For Q2E, which protein stability index is on record?
A: 3.88

Q: With Q2L as the variant, how does the protein stability index read?
A: 1.8

Q: Which protein stability index does the source give for Q2S here?
A: 3.44

Q: With Q2C as the variant, how does the protein stability index read?
A: 1.96

Q: Which protein stability index does the source give for Q2R here?
A: 3

Q: Which protein stability index does the source give for Q2M here?
A: 1.65

Q: For Q2I, which protein stability index is on record?
A: 1.84

Q: With Q2T as the variant, how does the protein stability index read?
A: 3.04

Q: With Q2V as the variant, how does the protein stability index read?
A: 2.17

Q: Which protein stability index does the source give for Q2A here?
A: 2.44

Q: For Q2F, which protein stability index is on record?
A: 1.72

Q: Which protein stability index does the source give for E1G here?
A: 2.45

Q: For E1V, which protein stability index is on record?
A: 3.14

Q: Which protein stability index does the source give for E1N here?
A: 2.99

Q: Which protein stability index does the source give for E1W here?
A: 1.62

Q: For E1R, which protein stability index is on record?
A: 2.06

Q: For E1M, which protein stability index is on record?
A: 1.89

Q: With E1P as the variant, how does the protein stability index read?
A: 2.64

Q: Which protein stability index does the source give for E1D here?
A: 3.69

Q: With E1S as the variant, how does the protein stability index read?
A: 2.83

Q: Which protein stability index does the source give for E1L here?
A: 2.3

Q: For E1K, which protein stability index is on record?
A: 2.64

Q: With E1C as the variant, how does the protein stability index read?
A: 1.16

Q: Which protein stability index does the source give for E1A here?
A: 2.52

Q: With E1T as the variant, how does the protein stability index read?
A: 2.35

Q: For E1H, which protein stability index is on record?
A: 2.45

Q: With E1Q as the variant, how does the protein stability index read?
A: 2.77

Q: With E1F as the variant, how does the protein stability index read?
A: 2.19

Q: Which protein stability index does the source give for E1Y here?
A: 3.12

Variants of: B2
Assay: as above
Conditions: c terminus: a fixed tail appended

Q: With D20F as the variant, how does the protein stability index read?
A: 3.14

Q: For D20A, which protein stability index is on record?
A: 3.61

Q: With D20M as the variant, how does the protein stability index read?
A: 3.44

Q: With D20W as the variant, how does the protein stability index read?
A: 3.03

Q: For D20Q, which protein stability index is on record?
A: 3.43

Q: With D20E as the variant, how does the protein stability index read?
A: 3.96

Q: For D20C, which protein stability index is on record?
A: 3.02

Q: Which protein stability index does the source give for D20N here?
A: 3.37

Q: With D20V as the variant, how does the protein stability index read?
A: 3.71

Q: With D20R as the variant, how does the protein stability index read?
A: 3.84

Q: Which protein stability index does the source give for D20K here?
A: 3.29

Q: Which protein stability index does the source give for D20Y here?
A: 3.28

Q: For D20S, which protein stability index is on record?
A: 3.22

Q: With D20I as the variant, how does the protein stability index read?
A: 2.65

Q: For D20T, which protein stability index is on record?
A: 2.96

Q: With D20L as the variant, how does the protein stability index read?
A: 3.14

Q: Which protein stability index does the source give for D20G here?
A: 3.21

Q: For D20P, which protein stability index is on record?
A: 3.1

Q: With D20H as the variant, how does the protein stability index read?
A: 3.43

Q: Which protein stability index does the source give for V21H here?
A: 3.7

Q: Which protein stability index does the source give for V21Y here?
A: 3.98

Q: Which protein stability index does the source give for V21F here?
A: 3.47

Q: With V21K as the variant, how does the protein stability index read?
A: 3.88

Q: Which protein stability index does the source give for V21C here?
A: 3.85

Q: For V21T, which protein stability index is on record?
A: 3.34

Q: For V21M, which protein stability index is on record?
A: 3.52

Q: Which protein stability index does the source give for V21P here?
A: 2.97

Q: With V21A as the variant, how does the protein stability index read?
A: 3.68

Q: With V21R as the variant, how does the protein stability index read?
A: 3.95

Q: Which protein stability index does the source give for V21N here?
A: 3.54

Q: With V21I as the variant, how does the protein stability index read?
A: 3.25

Q: For V21D, which protein stability index is on record?
A: 3.53

Q: For V21Q, which protein stability index is on record?
A: 3.25

Q: With V21L as the variant, how does the protein stability index read?
A: 3.74

Q: For V21S, which protein stability index is on record?
A: 3.01

Q: For V21G, which protein stability index is on record?
A: 3.65

Q: With V21E as the variant, how does the protein stability index read?
A: 3.9

Q: With V21W as the variant, how does the protein stability index read?
A: 3.58

Q: For R23S, which protein stability index is on record?
A: 3.7

Q: For R23E, which protein stability index is on record?
A: 4.26

Q: With R23P as the variant, how does the protein stability index read?
A: 4.04

Q: For R23I, which protein stability index is on record?
A: 3.67

Q: For R23C, which protein stability index is on record?
A: 3.49

Q: Which protein stability index does the source give for R23Q here?
A: 3.84

Q: For R23Y, which protein stability index is on record?
A: 3.53

Q: Which protein stability index does the source give for R23M here?
A: 3.79

Q: Which protein stability index does the source give for R23L here?
A: 3.92

Q: For R23K, which protein stability index is on record?
A: 4.27

Q: For R23F, which protein stability index is on record?
A: 3.33

Q: Which protein stability index does the source give for R23D here?
A: 4.49

Q: Which protein stability index does the source give for R23T here?
A: 3.71

Q: Which protein stability index does the source give for R23A here?
A: 4.13

Q: Which protein stability index does the source give for R23V here?
A: 3.08

Q: Which protein stability index does the source give for R23G here?
A: 4.31

Q: For R23W, which protein stability index is on record?
A: 3.08

Q: With R23H as the variant, how does the protein stability index read?
A: 3.85

Q: With R23N as the variant, how does the protein stability index read?
A: 4.01

Q: With K19T as the variant, how does the protein stability index read?
A: 3.4

Q: Which protein stability index does the source give for K19L here?
A: 2.9

Q: Which protein stability index does the source give for K19M here?
A: 3.06

Q: For K19W, which protein stability index is on record?
A: 3.13

Q: With K19E as the variant, how does the protein stability index read?
A: 4.03

Q: Which protein stability index does the source give for K19C here?
A: 3.22

Q: With K19S as the variant, how does the protein stability index read?
A: 3.17

Q: Which protein stability index does the source give for K19G here?
A: 3.52

Q: With K19Q as the variant, how does the protein stability index read?
A: 3.89

Q: Which protein stability index does the source give for K19D here?
A: 3.39

Q: Which protein stability index does the source give for K19F here?
A: 3.05

Q: For K19R, which protein stability index is on record?
A: 4.12

Q: With K19P as the variant, how does the protein stability index read?
A: 3.33

Q: For K19V, which protein stability index is on record?
A: 2.95

Q: Which protein stability index does the source give for K19I here?
A: 2.52

Q: Which protein stability index does the source give for K19N here?
A: 3.3

Q: Which protein stability index does the source give for K19A here?
A: 3.66

Q: With K19Y as the variant, how does the protein stability index read?
A: 3.25

Q: Which protein stability index does the source give for K19H here?
A: 3.55

Q: For R22A, which protein stability index is on record?
A: 3.54

Q: With R22G as the variant, how does the protein stability index read?
A: 3.61

Q: Which protein stability index does the source give for R22I here?
A: 3.48

Q: With R22M as the variant, how does the protein stability index read?
A: 3.65

Q: For R22H, which protein stability index is on record?
A: 3.96

Q: With R22S as the variant, how does the protein stability index read?
A: 3.71

Q: Which protein stability index does the source give for R22L here?
A: 3.84

Q: For R22W, which protein stability index is on record?
A: 3.27

Q: With R22F as the variant, how does the protein stability index read?
A: 3.51

Q: Which protein stability index does the source give for R22C here?
A: 4.07

Q: Which protein stability index does the source give for R22Y here?
A: 3.69

Q: With R22E as the variant, how does the protein stability index read?
A: 4.73

Q: With R22T as the variant, how does the protein stability index read?
A: 4.04

Q: With R22V as the variant, how does the protein stability index read?
A: 3.76

Q: With R22P as the variant, how does the protein stability index read?
A: 3.62

Q: With R22Q as the variant, how does the protein stability index read?
A: 3.51

Q: For R22D, which protein stability index is on record?
A: 4.31

Q: With R22K as the variant, how does the protein stability index read?
A: 3.76

Q: For R22N, which protein stability index is on record?
A: 4.04

Q: With R18T as the variant, how does the protein stability index read?
A: 3.29

Q: With R18V as the variant, how does the protein stability index read?
A: 3.27

Q: Which protein stability index does the source give for R18W here?
A: 3.27

Q: Which protein stability index does the source give for R18S here?
A: 3.5

Q: For R18P, which protein stability index is on record?
A: 3.13

Q: For R18Y, which protein stability index is on record?
A: 3.2

Q: Which protein stability index does the source give for R18Q here?
A: 3.38

Q: Which protein stability index does the source give for R18N here?
A: 3.58

Q: For H24S, which protein stability index is on record?
A: 3.27

Q: With H24Y as the variant, how does the protein stability index read?
A: 2.79

Q: For H24I, which protein stability index is on record?
A: 3.24

Q: With H24W as the variant, how does the protein stability index read?
A: 3.03

Q: With H24R as the variant, how does the protein stability index read?
A: 3.37

Q: With H24F as the variant, how does the protein stability index read?
A: 3.06

Q: For H24L, which protein stability index is on record?
A: 3.17

Q: For H24Q, which protein stability index is on record?
A: 3.58

Q: For H24K, which protein stability index is on record?
A: 3.62

Q: With H24A as the variant, how does the protein stability index read?
A: 3.79

Q: Which protein stability index does the source give for H24V here?
A: 3.11

Q: For H24N, which protein stability index is on record?
A: 2.89

Q: For H24E, which protein stability index is on record?
A: 4.12

Q: With H24T as the variant, how does the protein stability index read?
A: 3.63

Q: Which protein stability index does the source give for H24M here?
A: 2.88

Q: For H24G, which protein stability index is on record?
A: 3.52

Q: With H24C as the variant, how does the protein stability index read?
A: 3.31

Q: Which protein stability index does the source give for H24P here?
A: 3.24

Q: With H24D as the variant, how does the protein stability index read?
A: 3.84
